Patent US20180164286A1 (MEDICAL DIAGNOSTIC LABORATORIES, published 2018)
Numbering of substitutions follows the chain as printed. Numbers in names are those of the source.

B1: Large BiT (LB)-4E-BP2, full-length (other)
chain: MVFTLEDFVGDWEQTAAYNLDQVLEQGGVSSLLQNLAVSVTPIQRIVRSGENALKIDIHVIIPYEGLSADQMAQIEEVFKVVYPVDDHHFKVILPYGTLVIDGVTPNMLNYFGRPYEGIAVFDGKKITVTGTLWNGNKIIDERLITPDGSMLFRVTINSGSSGGGGSGGGGSSGMSSSAGSGHQPSQSRAIPTRTVAISDAAQLPHDYCTTPGGTLFSTTPGGTRIIYDRKFLLDRRNSPMAQTPPCHLPNIPGVTSPGTLIEDSKVEVNNLNNLNNHDRKHAVGDDAQFEMDI
B2: R62P LB-4E-BP2 (other)
chain: B1 chain with R236P
notes: Patient (COSMIC) mutation made in LB-4E-BP2 as a linear expression cassette; The residue number counts on 4E-BP2 itself; also called 4EBP2-R62P
B3: D55Y LB-4E-BP2 (other)
chain: B1 chain with D229Y
notes: Patient (COSMIC) mutation made in LB-4E-BP2 as a linear expression cassette; The residue number counts on 4E-BP2 itself; also called 4EBP2-D55Y
B4: LB-4E-BP1 with T37E, T46E, S65E, and T70E (other)
chain: MVFTLEDFVGDWEQTAAYNLDQVLEQGGVSSLLQNLAVSVTPIQRIVRSGENALKIDIHVIIPYEGLSADQMAQIEEVFKVVYPVDDHHFKVILPYGTLVIDGVTPNMLNYFGRPYEGIAVFDGKKITVTGTLWNGNKIIDERLITPDGSMLFRVTINSGSSGGGGSGGGGSSGMSGGSSCSQTPSRAIPATRRVVLGDGVQLPPGDYSTEPGGTLFSTEPGGTRIIYDRKFLMECRNEPVTKEPPRDLPTIPGVTSPSSDEPPMEASQSHLRNSPEDKRAGGEESQFEMDI
notes: All four mTOR phosphorylation sites changed to glutamate on the LB-4E-BP1 plasmid; The residue numbers count on 4E-BP1 itself; also called T37/46/70E/S65E (all 4 sites mutated); all E
B5: 4E-BP1 with C-terminal LB at residue 75 (other, UniProt Q13541 1-75, looked up, not shown: large carriers)
chain: MSGGSSCSQTPSRAIPATRRVVLGDGVQLPPGDYSTTPGGTLFSTTPGGTRIIYDRKFLMECRNSPVTKTPPRDL

Key:
[1] = target: Small BiT (SB)-eIF4E, full-length; test: cell-based or functional assay
[2] = target: T1, Small BiT (SB)-eIF4E, full-length; test: split-luciferase luminescence in 3A1 cell line stably expressing SB-eIF4E
T1 construct: N-terminal Small BiT fusion of full-length eIF4E (cDNA Origene RC207333), expressed intracellularly in HEK293, MCF-7 or HEK293-derived clones; also called Full-length SB-eIF4E; SB-linked eIF4E

[3] = target: T1, Small BiT (SB)-eIF4E, full-length; test: split-luciferase (NanoBiT) luminescence in HEK293 cells

Binder | fold-change of split-luciferase luminescence, rapamycin (50 nM, 1 h) over vehicle; HEK293 cells [1] [fold] | binding result [2] | other results
B1 | 1.84 |  | 
B2 |  | no binding | 
B3 |  | no binding | 
B4 |  |  | binding result [3]: no binding
B5 | 0.83 |  | 
